Results from patent publication US20160003839A1 (NATIONAL UNIVERSITY OF IRELAND GALWAY, published 2016).

Each binder was assayed against T1, Gal-α-(1→3)-Gal target of the SPR experiment (ligand on the chip not stated) (assay: SPR (BIAcore), Kd from kon and koff; ligand on the chip not stated).
T1 construct: also called target glycan
Procedure: Dissociation constants (Kd) for the scFvs were calculated from the measured association (kon) and dissociation (koff) rate constants by using surface plasmon resonance (SPR) BIAcore instrumentation and software (GE).

Binder	Kd [nM]
scFv-A4 (scFv, Chicken scFv (VL-linker-VH) from a pComb3 phage library, expressed soluble in E. coli; It recognises the Gal-α-(1→3)-Gal glycan, not a protein surface) scFv: QAALTQPSSVSTNPGGTVKITCSGGNGNYGWYQQKSPGSAPVTVIYSNNKRPSDIPSRFSGSKSGSTATLTITGVQVDDEAVYFCGAYDNTYVGVFGAGTTLTVLGQSSRSSSGGGSSGGGGSAVTLDESGGGLQTPGGGLSLVCKASGFTFSSYSMQWVRQTPGKGLEFVAGIGYSDSYTYFGPAVKGRATISRDNGQNTVRLQLNNLRAEDTATYYCARSADTIYGCTHPWCSADNIDAWGHGTEVIVSSTSGQAGQ	57.3
scFv-G12 (scFv, Chicken scFv (VL-linker-VH), expressed soluble in E. coli; It recognises the Gal-α-(1→3)-Gal glycan) scFv: QAALTQPSSVSANPGETVKITCSGGSYHYGWYQQKSPGSAPVTVIYSNNQRPSGIPSRFSGSTSDSTGTLTITGVQADDEAVYFCGSYDSSNTYAGIFGAGTTLTVLGQSSRSSSGGGSSGGGGSAVTLDESGGGFQTPGGALSLVCKASGFTFSSYSMQWVRQAPGKGLEFVAGIGNSDRYTYFGPAVKGRATISRDNGQSTLRLQLNNLRAEDTATYFCARSGDSGNGCTHPWCSADNINAWGHGTEVIVSSTSGQAGQ	18
scFv-A11 (scFv, Chicken scFv (VL-linker-VH), expressed soluble in E. coli; It recognises the Gal-α-(1→3)-Gal glycan) scFv: QAALTQPSSVSANPGETVKITCSGGGSYGGSYYYGWYQQKSPGSAPVTVIYSNDNRPSDIPSRFSGSTSGSTSTLTITGVQVDDEAVYYCGTYDSSYVGIFGAGTALTVLGQSSRSSGGGSSGGGGSAVTLDESGGGLQTPGGGLSLVCKASGFTFSSYSMQWVRQTPGKGLEFVAGIGYSDSYTYFGPAVKGRATISRDNGQNTVRLQLNNLRAEDTATYYCARSADTIYGCTHPWCSADNIDAWGHGTEVIVSSTSGQAGQ	8.04
